Patent US7629323B2, “Manipulation of neuronal ion channels” (Northwestern University, priority 2003, dated 2009)
Values belong to the molecule of their own block, whether it stands above or below them.

Tests used:
[1] = target: T1, Kv3.4a/Kv3.1b heteromeric channels (Rattus norvegicus, UniProt P25122+Q63734); format: cell-based
T1 construct: expressed in transfected cells; host or cells: HEK293
T1 sequence (Q63734 1-625): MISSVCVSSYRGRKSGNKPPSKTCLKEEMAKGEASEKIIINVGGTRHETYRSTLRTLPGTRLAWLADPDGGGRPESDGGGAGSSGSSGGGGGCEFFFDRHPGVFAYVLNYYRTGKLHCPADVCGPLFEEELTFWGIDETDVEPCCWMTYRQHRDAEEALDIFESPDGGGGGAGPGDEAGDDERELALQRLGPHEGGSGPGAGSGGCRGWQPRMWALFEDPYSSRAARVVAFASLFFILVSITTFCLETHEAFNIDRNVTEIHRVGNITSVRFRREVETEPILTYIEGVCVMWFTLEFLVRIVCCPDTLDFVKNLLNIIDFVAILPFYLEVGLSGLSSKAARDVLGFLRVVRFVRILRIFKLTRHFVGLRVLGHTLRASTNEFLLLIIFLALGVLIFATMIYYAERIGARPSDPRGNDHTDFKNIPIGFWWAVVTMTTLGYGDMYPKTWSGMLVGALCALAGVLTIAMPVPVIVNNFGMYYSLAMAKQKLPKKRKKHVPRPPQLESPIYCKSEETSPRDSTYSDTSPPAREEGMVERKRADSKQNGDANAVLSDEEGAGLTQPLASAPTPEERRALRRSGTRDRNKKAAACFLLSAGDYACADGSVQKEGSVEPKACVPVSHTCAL
T1 sequence (P25122 1-585): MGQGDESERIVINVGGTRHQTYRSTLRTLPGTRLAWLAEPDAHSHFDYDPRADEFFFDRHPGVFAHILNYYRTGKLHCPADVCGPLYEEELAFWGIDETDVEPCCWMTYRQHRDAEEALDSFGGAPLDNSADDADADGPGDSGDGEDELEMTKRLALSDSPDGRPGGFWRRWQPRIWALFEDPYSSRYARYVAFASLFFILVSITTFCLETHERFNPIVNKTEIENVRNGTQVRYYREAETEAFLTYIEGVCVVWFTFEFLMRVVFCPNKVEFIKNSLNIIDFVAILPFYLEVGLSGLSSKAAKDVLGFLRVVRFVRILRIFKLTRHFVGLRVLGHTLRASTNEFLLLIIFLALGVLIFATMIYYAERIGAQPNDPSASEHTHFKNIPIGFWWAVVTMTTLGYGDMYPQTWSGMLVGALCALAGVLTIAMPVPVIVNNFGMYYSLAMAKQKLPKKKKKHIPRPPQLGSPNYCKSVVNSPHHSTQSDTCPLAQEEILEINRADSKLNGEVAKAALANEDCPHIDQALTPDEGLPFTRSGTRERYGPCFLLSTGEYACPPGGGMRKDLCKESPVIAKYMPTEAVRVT
Text: Electrophysiology. Whole-cell recordings used standard techniques^27,28. The internal solution consisted of (in mM): 30-90 K2SO4, 0-60 N-methyl-D-glucamine, 2 MgCl2, 40 HEPES, 5 EGTA, 12 phosphocreatine, 2 Na2ATP, 0.2 Na3GTP, and 0.1 leupeptin, pH 7.2 with H2SO4 (osmolarity 260-270 mOsm/l). The external solution consisted of (in mM): 140 Na-isethionate, 2 KCl, 4 MgCl2, 10 HEPES, 12 glucose and 0.001 TTX, pH 7.35 with NaOH (osmolarity 295-305 mOsm/l). The internal solution for current clamp recordings consisted of (in mM) 110 potassium methylsulphate, 2 MgCl2, 40 HEPES, 5 EGTA, 12 phosphocreatine, 2 Na2ATP, 0.2 Na3GTP, and 0.1 leupeptin, pH 7.2 with H2SO4 (osmolarity 260-270 mOsm/l). In the case of current clamp recordings, TTX was omitted from external solution. For the recordings in the presence of Ca^+2 ions EGTA was omitted from internal solution and 4 mM of MgCl2 was substituted by 2 mM of CaCl2 and 2 mM of MgCl2. […] Recordings were obtained with Axon Instruments 200 patch-clamp amplifier and controlled and monitored with a PC running pClamp software (version 7.0) (Axon Instruments Inc., Union City, Calif.). […] After seal rupture, series resistance (2-10 MΩ) was compensated (75-90%) and periodically monitored. […]
Single cell RT-PCR (scRT-PCR). […] In the case of co-transfection with Kv3.4a and Kv3.1b cDNA, single cell RT-PCR was used to confirm the presence of both mRNAs in the recorded cell. […]

[2] = target: Kv3.4 protein (native, rat brain membranes / fast-spiking neurons) (rat) (UniProt Q63734); test: cell-based or functional assay
Kv3.4 mRNA = test: siRNA suppression of Kv3.4 mRNA in HEK293/Kv3.4 cells, real-time quantitative PCR; format: cell-based, rat; settings: normalized to transfection efficiency (60%)
Protocol: For example, mammalian cells expressing the potassium channel were tested with siRNA vectors. HEK 293/Kv3.4a cells were generated by stable transfection with a linearized form of pcDNA3/Kv3.4a (Baranauskas et al., Nat Neurosci., 6:258 (2003)), and geneticin selection of a single clone. Kv3.4 expression was confirmed by quantitative PCR and Western blotting. Four target sequences were chosen (#1, #2, #3, and #4, described in more detail below). HEK293/Kv3.4 cells were transfected with these siRNA. To monitor transfection efficiency fluorescein labeled luciferase GL2-F1 siRNA (Dharmacon) was used. In transfected cells, labeled duplexes are detectable as discrete punctate cytoplasmic dots (Holen et al., Nucleic Acids Res., 30:1757 (2002)). Transfection efficiency was 60%, probably, due to high passage number.
Real-time quantitative PCR employing SYBR green fluorescence detection was used to measure Kv3.4 cDNA abundance. As a control for the non-specific effects of siRNA duplexes, siRNA targeting Kv3.1 was used. The differences in the amount of extracted RNA were taken into account by normalization to β-actin. Variability in the amplification during PCR reactions was estimated by running five PCR reactions for the same cDNA sample. […]

Kv3.1b (rat) = Kv3.1b (rat) (UniProt P25122); test: cell-based or functional assay

Molecule: CC[N+](CC)(CC)CC [TEA, tetraethylammonium]
block of K+ currents in Kv3.4a/Kv3.1b co-transfected HEK293 cells [1]: blocked

Molecule: BDS-I (from UniProt P11494 1-43) (peptide)
duration of spikes in FS neurons [2]: 53%

Molecule: duplex #4: 21-nt double-stranded RNA targeting rat Kv3.4 site D, GGCAGTGTTGAGCCGAAAC (SEQ ID NO:4), position 1825-1843 (second strand not cited, further chemistry not given here; listed as Rattus rattus)
estimated suppression of the levels of Kv3.4 mRNA in the transfected cells (Kv3.4 mRNA): 50%

fast inactivation time constant of K+ currents in co-transfected HEK293 cells (Kv3.1b (rat)): 38 ms | mean burst duration (long bursts), single channel recording of co-transfected HEK293 cells (Kv3.1b (rat)): 250 ms | mean burst duration (short bursts), single channel recording of co-transfected HEK293 cells (Kv3.1b (rat)): 16.2 ms
B1: Kv3.4a (protein, rat, UniProt Q63734 1-625, looked up)
chain: MISSVCVSSYRGRKSGNKPPSKTCLKEEMAKGEASEKIIINVGGTRHETYRSTLRTLPGTRLAWLADPDGGGRPESDGGGAGSSGSSGGGGGCEFFFDRHPGVFAYVLNYYRTGKLHCPADVCGPLFEEELTFWGIDETDVEPCCWMTYRQHRDAEEALDIFESPDGGGGGAGPGDEAGDDERELALQRLGPHEGGSGPGAGSGGCRGWQPRMWALFEDPYSSRAARVVAFASLFFILVSITTFCLETHEAFNIDRNVTEIHRVGNITSVRFRREVETEPILTYIEGVCVMWFTLEFLVRIVCCPDTLDFVKNLLNIIDFVAILPFYLEVGLSGLSSKAARDVLGFLRVVRFVRILRIFKLTRHFVGLRVLGHTLRASTNEFLLLIIFLALGVLIFATMIYYAERIGARPSDPRGNDHTDFKNIPIGFWWAVVTMTTLGYGDMYPKTWSGMLVGALCALAGVLTIAMPVPVIVNNFGMYYSLAMAKQKLPKKRKKHVPRPPQLESPIYCKSEETSPRDSTYSDTSPPAREEGMVERKRADSKQNGDANAVLSDEEGAGLTQPLASAPTPEERRALRRSGTRDRNKKAAACFLLSAGDYACADGSVQKEGSVEPKACVPVSHTCAL
